# Test results taken from patent US12427163B2, “Anti-VTCN1 antibodies and antibody drug conjugates” (Bluefin BioMedicine, Inc., priority 2017, dated 2025).
# Entries after “also recorded” stand apart in the source; their conditions may differ.
# T1: mouse VTCN1 protein (Mus musculus, UniProt Q7TSP5)
# T1 construct: His
# T1 sequence (Q7TSP5 25-257): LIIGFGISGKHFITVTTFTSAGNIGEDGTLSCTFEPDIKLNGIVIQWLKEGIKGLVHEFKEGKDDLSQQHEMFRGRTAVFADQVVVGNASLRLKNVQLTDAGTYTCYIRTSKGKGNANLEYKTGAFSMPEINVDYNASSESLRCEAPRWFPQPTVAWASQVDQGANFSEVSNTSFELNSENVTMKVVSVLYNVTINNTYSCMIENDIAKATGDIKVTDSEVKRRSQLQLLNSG
# T2: human VTCN1 protein (Homo sapiens, UniProt Q7Z7D3)
# T2 construct: His
# T2 sequence (Q7Z7D3 25-282): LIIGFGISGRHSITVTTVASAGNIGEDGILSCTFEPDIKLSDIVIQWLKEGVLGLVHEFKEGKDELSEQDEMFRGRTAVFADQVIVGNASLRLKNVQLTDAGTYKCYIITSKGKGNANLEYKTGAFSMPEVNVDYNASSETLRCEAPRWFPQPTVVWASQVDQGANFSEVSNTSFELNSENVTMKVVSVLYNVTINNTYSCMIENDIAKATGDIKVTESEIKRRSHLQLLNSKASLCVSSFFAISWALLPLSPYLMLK
# B1: 6D9: mouse anti-human VTCN1 antibody; VH SEQ ID NO: 113, VL SEQ ID NO: 117; 6D9 represents 6D9-mIgG2a if not otherwise specified (antibody, V domains shown)
# VH: QIQLQQSGPGLVQPSQSLSITCTVSGFSLTSYGVQWIRQSPGKGLEWLGVIWSSGSTDYNAAFLSRLSFSKDNSKSQVFFQMNSLQADDSAIYYCARDVTTIVEGFAHWGQGTLVTVSA
# VL: NIVMTQSPKSMSMSVGERVTLSCKASEKVGTYVSWYQQKPEQSPKLLIYGASNRYTGVPDRFTGSGSATDFTLTISSVQVEDLADYHCGQTYSYPFTFGSGTKLEIK
# notes: mouse anti-human VTCN1 antibody; 6D9 represents 6D9-mIgG2a if not otherwise specified
# Experiments:
# 4T1 tumors = assay: 4T1 mouse triple negative breast cancer model in Balb/C mice; type: in vivo; conditions: 6D9 10 mg/kg, gemcitabine 75 mg/kg, i.p., days 5, 8, 12, 14, 16
# Description: 6-8 week-old Balb/C mice were injected with 0.1 million of 4T1 cells in the mammary fat pad. On day 5, mice were randomized to 4 treatment groups, PBS, 6D9 (10 mg/kg), Gemcitabine (75 mg/kg), and 6D9 (10 mg/kg) plus gemcitabine (75 mg/kg). All treatments were by intraperitoneal injection and mice received a total of 5 treatments on days 5, 8, 12, 14, and 16.
# The tumors and lymph nodes were harvested from these mice, and cells were dissociated and subjected to immune cell profiling by flow cytometry analysis.
# KLN205 tumors = assay: KLN205 syngeneic mouse lung squamous tumor model in DBA2 mice; type: in vivo; conditions: for KLN205 primary tumor growth, isotype comparison: Example 15, 200 μg (10 mg/kg) i.p. from day 9
# Description: For the tumor study. 6-8 week-old female DBA2 mice were implanted subcutaneously in the right flank with 2.5×10^5 mouse lung squamous carcinoma KLN205 cells in 50% matrigel on day 0. Mice were treated with PBS as a vehicle control, a mouse IgG isotype control (10 mg/kg), or anti-VTCN1 6D9 antibody (10 mg/kg) on days 3, 6, 10, 13, 15, 17, 20, and 22 following tumor implantation by intraperitoneal (i.p.) injection. Tumors were measured using an electronic caliper twice a week and tumor volume was calculated using the formula 0.52*length*width*width. Mouse body weight was also measured and recorded.
# 6-8 week-old female DBA2 mice were implanted subcutaneously in the right flank with 2.5×10^5 mouse lung squamous carcinoma cell KLN205 cells in 50% matrigel on day 0. Tumors were measured on day 7 and mice are randomized to 7 treatment groups. The average size was 50 mm^3. The treatment groups were: PBS vehicle control, mIgG2a isotype control. 6D9, anti-mouse PD1 antibody RMP1-14, 6D9+RMP1-14, anti-mouse CTLA-4 antibody 9D9, and 6D9+9D9. The mice were treated on days 8, 11, 13, 15, 18, 20, 22, and 25. All antibodies were 10 mg/kg by i.p.
# To test the activity of the 6D9 and 6D9-mIgG1 antibodies, 6-8 weeks old female DBA2 mice were implanted subcutaneously in the right flank with 0.2 million KLN205 cells in PBS on day 0. Mice were randomized on day 9 into 3 treatment groups, mIgG1 control. 6D9-mIgG1, 6D9-mIgG2a. Mice were treated on days 9, 11, 15, 18, and 22 by i.p. with 200 μg antibodies (10 mg/kg). […] However.
# Hepa1-6 tumors = assay: Hepa 1-6 mouse hepatoma tumor model; type: in vivo; conditions: 10 mg/kg ip. twice a week, 7 doses, from day 8
# Description: The same proteomics and immunohistochemistry analysis used in Example 1 and Example 12 were also used to analyze tumors harvested from mice subcutaneously injected with Hepa 1-6 mouse hepatoma cells, and these tumors were fount to express VTCN1. To test the efficacy of anti-VTCN1 antibodies in this alternate syngeneic tumor model, 6-8 week old C57BL/6 female mice were injected with 2.5 million Hepa1-6 cells in matrigel. On day 8 after tumor cell implantation, when tumors were 100-200 mm3, tumor-bearing mice were randomized to two treatment groups and received either the isotype control, mIgG2a or the anti-VTCN1 antibody 6D9. Treatment was started on day 8 with mice receiving 10 mg/kg of antibody by ip. injection. Mice were treated at this dose level and route twice a week for a total of 7 doses. Tumor volume and body weight were recorded twice a week.
# mouse VTCN1 protein = target: T1, mouse VTCN1 protein; assay: Cross-reactivity with mouse VTCN1 protein (method not given); type: binding
# human VTCN1 protein = target: T2, human VTCN1 protein; assay: Affinity to recombinant VTCN1-his by OCTET Red (Protein A biosensors); type: binding; conditions: Table 5
# Description: The affinity of antibodies to recombinant VTCN1 was determined on an OCTET™ Red (Pall, ForteBio) instrument. After loading reagents into a 96-well plate, the OCTET™ Red with Protein A-conjugated biosensors was programmed as follows: 30 seconds for baseline #1; 45 seconds to immobilize the antibody; 30 seconds for baseline #2; 300 seconds for association of antibody to recombinant VTCN1-his; and 300 seconds for dissociation of recombinant VTCN1-his from the antibody. Table 5 lists the affinity measured for selected antibodies.
molecule,measurement,setting,value
B1,4T1 tumor growth,4T1 tumors,did not show any effect in 4T1 tumor growth
same,primary tumor growth of KLN205 tumors,"KLN205 tumors; Example 13, 10 mg/kg i.p. from day 3",inhibits primary tumor growth of KLN205 tumors
same,mice surviving at the end of the study on day 36,KLN205 tumors; Example 14,one mouse survived
same,"KLN205 tumor growth, established tumors","KLN205 tumors; Example 14, 10 mg/kg i.p. from day 8",delayed tumor growth
same,mouse survival / time to tumor end point 1500 mm^3,KLN205 tumors; Example 15,prolongs the median time to endpoint irrespective of isotype
same,"KLN205 primary tumor growth, isotype comparison",KLN205 tumors,inhibits primary tumor growth
same,"KLN205 primary tumor growth, isotype comparison",KLN205 tumors; listed as 6D9-mIgG2a,inhibit primary tumor growth
same,Hepa1-6 tumor growth,Hepa1-6 tumors,inhibits primary tumor growth; also recorded: inhibits tumor growth of Hepa1-6 tumors
same,cross-reactivity with mouse VTCN1 protein,mouse VTCN1 protein,cross-reacts with mouse VTCN1 protein
same,Kdis (human),human VTCN1 protein,1.52 × 10^−3
same,Kon (human),human VTCN1 protein,6.19 × 10^5
